Data as given in patent US20150056133A1 (Boehringer Ingelheim, published 2015).

T1: mouse CX3CR1 (mouse, UniProt Q9Z0D9 1-354)
T1 construct: whole, on cells
T1 sequence (looked up): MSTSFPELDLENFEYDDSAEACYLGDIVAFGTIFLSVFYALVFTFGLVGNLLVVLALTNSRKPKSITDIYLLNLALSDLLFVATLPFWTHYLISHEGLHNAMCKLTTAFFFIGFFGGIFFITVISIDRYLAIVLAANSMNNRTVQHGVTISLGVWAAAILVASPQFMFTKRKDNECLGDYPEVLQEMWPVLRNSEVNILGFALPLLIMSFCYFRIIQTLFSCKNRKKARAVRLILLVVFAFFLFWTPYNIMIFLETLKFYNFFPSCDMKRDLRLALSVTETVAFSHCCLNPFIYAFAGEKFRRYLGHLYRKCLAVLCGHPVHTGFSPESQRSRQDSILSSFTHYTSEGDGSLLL

T2: human CX3CR1 (human, UniProt P49238 1-355)
T2 construct: Presented on BA/F3-hCX3CR1, CHO-hCX3CR1 or HEK 293-hCX3CR1 cells, depending on the assay; also called hCX3CR1
T2 sequence (looked up): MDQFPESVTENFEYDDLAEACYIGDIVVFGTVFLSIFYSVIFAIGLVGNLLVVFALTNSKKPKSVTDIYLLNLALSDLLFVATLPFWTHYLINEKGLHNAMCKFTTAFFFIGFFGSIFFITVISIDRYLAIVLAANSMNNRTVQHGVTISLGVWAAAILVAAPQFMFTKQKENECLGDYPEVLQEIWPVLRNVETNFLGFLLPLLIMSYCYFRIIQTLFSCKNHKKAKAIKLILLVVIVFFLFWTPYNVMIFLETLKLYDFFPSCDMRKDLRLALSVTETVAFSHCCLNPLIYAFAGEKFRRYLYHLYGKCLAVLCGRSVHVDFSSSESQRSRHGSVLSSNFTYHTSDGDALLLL


What was measured:
[1] = biological target: T3, human CCR2 (human, UniProt P41597 1-374); assay: FACS binding on CHO cells expressing human CCR2, anti-cmyc detection
T3 construct: whole, on cells
Description: (§1) Specificity for the hCX3CR1 receptor was evaluated by performing a FACS binding experiment on CHO-K1 parental cells or CHO cells expressing human CCR2, human CCR5 or mouse CX3CR1. The VHHs were incubated with the respective cell lines for 30 minutes at 4° C. followed by three wash steps and subsequently incubated with the detection reagents. As detection, a mouse anti-cmyc antibody (Serotec, MCA2200) followed by a goat anti-mouse antibody coupled to PE (Jackson 115-116-071) was used, each incubation was for 30 minutes at 4° C. and was followed by three wash steps. For each cell line a quality control with receptor-specific antibody was included. In addition, the highest concentration of each VHH was also incubated with CHO cells expressing hCX3CR1 as a positive control. No binding to mouse CX3CR1, human CCR2 or human CCR5 could be observed.

[2] = biological target: T4, human CCR5 (human, UniProt P51681 1-352); assay: FACS binding on CHO cells expressing human CCR5, anti-cmyc detection
T4 construct: whole, on cells
Description: as §1

[3] = biological target: T1, mouse CX3CR1; assay: FACS binding on CHO cells expressing mouse CX3CR1, anti-cmyc detection
Description: as §1

[4] = biological target: T2, human CX3CR1; assay: competition FACS against labeled fractalkine, HEK 293-hCX3CR1 cells
[5] = biological target: T2, human CX3CR1; assay: competition FACS against labeled fractalkine, BA/F3-hCX3CR1 cells
[6] = biological target: T2, human CX3CR1; assay: competition FACS against labeled fractalkine, CHO-hCX3CR1 cells
Description: Periplasmic extracts were screened in a human CX3CR1/human fractalkine FACS competition assay to assess the ability of the expressed VHHs to block the binding of the unique CX3CR1 ligand to the receptor. Human CX3CR1 was presented on CHO cells. As a detection reagent fractalkine (R&D Systems, Minneapolis, Minn., USA) labeled with Alexa Fluor 647 (A647-Fractalkine) at a degree of labeling of 1 was used. In brief, 50 μl of periplasmic extract was added to 6 nM labeled fractalkine (50 μl) and 2E5 CHO-hCX3CR1 cells. After one hour incubation at 4° C., cells were washed three times before analysis on a FACS Array (Becton Dickinson). First a gate was set on the intact cells as determined from the scatter profile. Next, dead cells were gated out by their fluorescence profile from the PI stain (Sigma, St Louis, US). The fluorescence profile from the Alexa Fluor 647 label was determined for each sample and used for the calculation of blocking capacity. As controls, conditions were taken along where there was no VHH present in the periplasmic extract or a known irrelevant VHH and samples were included with excess cold fractalkine. For each sample the percentage block was determined using the control samples to determine the assay window. […]

T3 sequence (P41597 whole entry): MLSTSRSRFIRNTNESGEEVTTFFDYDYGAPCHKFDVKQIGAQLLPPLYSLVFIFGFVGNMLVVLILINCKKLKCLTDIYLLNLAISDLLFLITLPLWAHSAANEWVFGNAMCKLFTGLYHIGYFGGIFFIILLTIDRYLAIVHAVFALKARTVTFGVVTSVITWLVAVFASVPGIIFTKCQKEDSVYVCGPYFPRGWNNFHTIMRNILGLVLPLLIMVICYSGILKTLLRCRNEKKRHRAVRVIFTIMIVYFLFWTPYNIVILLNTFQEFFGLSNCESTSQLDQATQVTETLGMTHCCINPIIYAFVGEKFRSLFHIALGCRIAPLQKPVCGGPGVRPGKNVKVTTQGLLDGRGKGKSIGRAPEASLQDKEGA
T4 sequence (P51681 whole entry): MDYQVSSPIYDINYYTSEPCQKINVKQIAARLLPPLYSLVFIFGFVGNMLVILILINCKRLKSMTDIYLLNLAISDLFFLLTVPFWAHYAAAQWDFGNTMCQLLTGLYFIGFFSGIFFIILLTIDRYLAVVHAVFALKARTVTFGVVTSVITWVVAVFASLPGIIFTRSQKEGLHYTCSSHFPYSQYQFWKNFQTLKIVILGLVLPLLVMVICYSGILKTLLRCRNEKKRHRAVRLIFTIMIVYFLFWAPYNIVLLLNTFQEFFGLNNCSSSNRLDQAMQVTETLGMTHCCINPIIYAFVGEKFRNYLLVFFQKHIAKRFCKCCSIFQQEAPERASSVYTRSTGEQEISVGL

Binder | binding result [1] | binding result [2] | binding result [3] | % Block [4] [%] | IC50 [4] [nM] | IC50 [5] [nM] | IC50 [6] [nM]
CX3CR1BII318 (VHH, Bivalent VHH (single polypeptide chain)) EVQLVESGGGSVQAGESLRLSCAASGSIFSSNAMAWYRQAPGKRRDLVAAINSVGVTKYADSVKGRFTISRDNAKNTVYLQMNSLKPEDTAVYYCTSDPRRGWDTRYWGQGTQVTVSSGGGGSGGGGSGGGGSGGGGSGGGGSGGGGSGGGGSEVQLVESGGGSVQAGESLRLSCAASGSIFSSNAMAWYRQAPGKRRDLVAAINSVGVTKYADSVKGRFTISRDNAKNTVYLQMNSLKPEDTAVYYCTSDPRRGWDTRYWGQGTQVTVSSAAAEQKLISEEDLNGAAHHHHHH | no binding | no binding | no binding | 102 | 0.3 | – | –
CX3CR1BII18E06 (VHH, Expressed in E. coli TG1 as c-myc, His6-tagged protein) VHH: KVQLVESGGGLVQPGGSLRLSCATSGTIFSNNAMGWYRQAPGKKRDLVASISSSGSTNYADSVKGRFTVSRDNDKNTGYLQMNSLKPEDTGVYYCTLDARRGWNTAYWGQGAQVTVSS | no binding | no binding | no binding | – | – | 2.8 | –
CX3CR1BII317 (VHH, Bivalent VHH (single polypeptide chain)) EVQLVESGGGLVQAGGSLRLSCVASGRTFSSYAMGWFRQAPGKERAFVAGISGSASRKYYADSVKGRFTVSRDNARNTVYLQMNSLKPEDTAVYYCAASNSYPKVQFDYYGQGTLVTVSSGGGGSGGGGSGGGGSGGGGSGGGGSGGGGSGGGGSEVQLVESGGGLVQAGGSLRLSCVASGRTFSSYAMGWFRQAPGKERAFVAGISGSASRKYYADSVKGRFTVSRDNARNTVYLQMNSLKPEDTAVYYCAASNSYPKVQFDYYGQGTLVTVSSAAAEQKLISEEDLNGAAHHHHHH | no binding | no binding | no binding | – | – | – | 3.4

More lines, now with the values ahead:

binding result [1] | binding result [2] | binding result [3] | % Block [4] [%] | IC50 [4] [nM] | IC50 [5] [nM] | IC50 [6] [nM] | Binder
no binding | no binding | no binding | – | – | 8.1 | – | CX3CR1BII315 (VHH, Expressed in E. coli TG1 as c-myc, His6-tagged protein) VHH: EVQLVESGGGLVQAGGSLRLSCVASGRTFSSYAMGWFRQAPGKERAFVAGISGSASRKYYADSVKGRFTVSRDNARNTVYLQMNSLKPEDTAVYYCAASNSYPKVQFDYYGQGTQVTVSS
no binding | no binding | no binding | 94 | 5.3 | – | – | CX3CR1BII316 (VHH, Expressed in E. coli TG1 as c-myc, His6-tagged protein) VHH: EVQLVESGGGSVQAGESLRLSCAASGSIFSSNAMAWYRQAPPGKQRDLVALINSVGITKYADSVKGRFTISSDNAKNTVYLEMNSLKPEDTAVYYCTSDGRRGWDTRYWGQGTQVTVSS
no binding | no binding | no binding | 102 | 2.5 | – | – | CX3CR1BII66B02 (VHH, Expressed in E. coli TG1 as c-myc, His6-tagged protein) VHH: EVQLVESGGGSVQAGESLRLSCAASGSIFSSNAMAWYRQAPGKRRDLVAAINSVGVTKYADSVKGRFTISRDNAKNTVYLQMNSLKPEDTAVYYCTSDPRRGWDTRYWGQGTQVTVSS
